Results on twelve substances are retold here after patent US9017992.

Test [1] has as its target Human CD45 LCA (human) (UniProt P08575). Briefly: IHC on multi-block FFPE tissue, primary 1:1600, K5007 reference.
Test [2] has the same target. Description: IHC on multi-block FFPE tissue, primary 1:1600, PNA system (D12102 + D12094).
For test [3], the target named is human BCL2 oncoprotein (human) (UniProt P10415). Briefly: IHC on multi-block FFPE tissue, primary 1:500, K5007 reference.
Test [4] has the same target. Briefly: IHC on multi-block FFPE tissue, primary 1:500, PNA system (D12102 + D12094).
Test [5] has as its target Human CD68 (human) (UniProt P34810). Description: IHC on multi-block FFPE tissue, primary 1:800, K5007 reference.
Test [6] shares this target. Briefly: IHC on multi-block FFPE tissue, primary 1:800, PNA system (D12102 + D12094).
Test [7] addresses Human Epithelial Membrane Antigen (human) (UniProt P15941). Description: IHC on multi-block FFPE tissue, primary 1:6400, K5007 reference.
Test [8] shares this target. Description: IHC on multi-block FFPE tissue, primary 1:6400, PNA system (D12102 + D12094).
For test [9], the target named is Tonsil tissues. Description: IHC on FFPE tonsil, negative control IgG1 1:300, EnVision-based detection K5007.
Test [10] has as its target Human Ki-67 Antigen (human) (UniProt P46013). Description: IHC on multi-block FFPE tissue, primary 1:1200, K5007 reference.
Test [11] has the same target. Briefly: IHC on FFPE tonsil, primary 1:1200, EnVision-based detection K5007.
The target is the same in test [12]. Briefly: IHC on FFPE tonsil, primary 1:400, PNA based detection (D12102 + D12094).
For test [13] the target is unchanged. Description: IHC on FFPE tonsil, primary 1:1200, PNA based detection (D12102 + D12094).
For test [14] the target is unchanged. Briefly: IHC on FFPE tonsil, primary 1:2400, PNA based detection (D12102 + D12094).
The target is the same in test [15]. Briefly: IHC on multi-block FFPE tissue, primary 1:1200, PNA system (D12102 + D12094).
Test [16] has the same target. Description: IHC on multi tissue section, M7240 1:150, 3-layer PNA system with HRP, DAB+.
Test [17] shares this target. Briefly: Double IHC on multi tissue sections, M7240 1:150, 3-layer PNA system with AP.
For test [18] the target is unchanged. Briefly: Double IHC on multi tissue sections, M7240 1:150, 3-layer PNA system with HRP, detection method 1.
Test [19] has the same target. Description: Double IHC on multi tissue sections, M7240 1:150, 3-layer PNA system with HRP, detection method 2.
The target is the same in test [20]. Description: IHC on multi tissue section, M7240 1:150, 3-layer PNA system with AP / Permanent Red; first of two scores, taken as the specific one.
In test [21] the target is mouse anti-human BCL2 oncoprotein, Clone 124 (DakoCytomation code No. M0887). Description: IHC on FFPE tonsil: unconjugated M0887 1:100 (0.015 uM) on tissue, then K5007 GaM:HRP 30 min.
The target in test [22] is Human p27 (human) (UniProt P46527). Briefly: IHC on multi-block FFPE tissue, primary 1:400, K5007 reference.
Test [23] shares this target. Briefly: IHC on multi-block FFPE tissue, primary 1:400, PNA system (D12102 + D12094).
In test [24] the target is Human Desmin (human) (UniProt P17661). Briefly: IHC on multi-block FFPE tissue, primary 1:1200, K5007 reference.
For test [25] the target is unchanged. Description: IHC on multi-block FFPE tissue, primary 1:1200, PNA system (D12102 + D12094).
For test [26], the target named is Human CD20cy (human) (UniProt P11836). Briefly: IHC on multi-block FFPE tissue, primary 1:8000, K5007 reference.
The target is the same in test [27]. Briefly: IHC on FFPE tonsil, primary 1:8000, EnVision-based detection K5007.
The target is the same in test [28]. Briefly: IHC on FFPE tonsil, primary 1:2000, PNA based detection (D12102 + D12094).
Test [29] has the same target. Briefly: IHC on FFPE tonsil, primary 1:8000, PNA based detection (D12102 + D12094).
The target is the same in test [30]. Briefly: IHC on FFPE tonsil, primary 1:14000, PNA based detection (D12102 + D12094).
Test [31] has the same target. Description: IHC on multi-block FFPE tissue, primary 1:8000, PNA system (D12102 + D12094).
In test [32] the target is Human Estrogen Receptor (human) (UniProt P03372). Description: IHC on multi-block FFPE tissue, primary 1:200, K5007 reference.
Test [33] shares this target. Briefly: IHC on multi-block FFPE tissue, primary 1:200, PNA system (D12102 + D12094).
For test [34], the target named is Human Cytokeratin (human). Briefly: IHC on multi-block FFPE tissue, primary 1:900, K5007 reference.
The target in test [35] is Human Cytokeratin (human). Description: IHC on FFPE tonsil, primary 1:900, EnVision-based detection K5007.
For test [36], the target named is Human Cytokeratin (human). Description: IHC on FFPE tonsil, primary 1:900, PNA based detection (D12102 + D12094).
Test [37] concerns the target Human Cytokeratin (human). Briefly: IHC on FFPE tonsil, primary 1:1600, PNA based detection (D12102 + D12094).
Test [38] has as its target Human Cytokeratin (human). Description: IHC on multi-block FFPE tissue, primary 1:900, PNA system (D12102 + D12094).
Test [39] has as its target Human Cytokeratin (human). Briefly: Double IHC on multi tissue sections, M3515 1:50, GaM-dex-PNA1 + PNA2-dex-HRP, DAB+.
Test [40] has as its target Human Cytokeratin (human). Description: Double IHC on multi tissue sections, M3515 1:50, GaM-dex-PNA1 (209-149) + PNA2-dex-HRP (209-157), detection method 1.
The target in test [41] is Human Cytokeratin (human). Briefly: Double IHC on multi tissue sections, M3515 1:50, GaM-dex-PNA1 (209-149) + PNA2-dex-HRP (209-157), detection method 2.
Test [42] addresses Human Cytokeratin (human). Description: IHC on FFPE tonsil, primary 1:300, PNA based detection (GAM/dextran/PNA1 D12102 + HRP/dextran/PNA2 D12094); score 0 to 3+.

UniProt P11836, sequence (P11836 whole entry): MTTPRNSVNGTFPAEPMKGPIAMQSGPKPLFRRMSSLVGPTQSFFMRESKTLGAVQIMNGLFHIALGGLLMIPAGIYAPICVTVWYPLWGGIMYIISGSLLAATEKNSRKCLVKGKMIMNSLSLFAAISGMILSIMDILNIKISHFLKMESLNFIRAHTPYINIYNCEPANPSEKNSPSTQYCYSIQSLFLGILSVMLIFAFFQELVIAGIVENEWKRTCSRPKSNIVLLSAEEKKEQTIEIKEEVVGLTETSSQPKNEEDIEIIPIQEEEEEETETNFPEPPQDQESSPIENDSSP
UniProt P46013, sequence (P46013 whole entry): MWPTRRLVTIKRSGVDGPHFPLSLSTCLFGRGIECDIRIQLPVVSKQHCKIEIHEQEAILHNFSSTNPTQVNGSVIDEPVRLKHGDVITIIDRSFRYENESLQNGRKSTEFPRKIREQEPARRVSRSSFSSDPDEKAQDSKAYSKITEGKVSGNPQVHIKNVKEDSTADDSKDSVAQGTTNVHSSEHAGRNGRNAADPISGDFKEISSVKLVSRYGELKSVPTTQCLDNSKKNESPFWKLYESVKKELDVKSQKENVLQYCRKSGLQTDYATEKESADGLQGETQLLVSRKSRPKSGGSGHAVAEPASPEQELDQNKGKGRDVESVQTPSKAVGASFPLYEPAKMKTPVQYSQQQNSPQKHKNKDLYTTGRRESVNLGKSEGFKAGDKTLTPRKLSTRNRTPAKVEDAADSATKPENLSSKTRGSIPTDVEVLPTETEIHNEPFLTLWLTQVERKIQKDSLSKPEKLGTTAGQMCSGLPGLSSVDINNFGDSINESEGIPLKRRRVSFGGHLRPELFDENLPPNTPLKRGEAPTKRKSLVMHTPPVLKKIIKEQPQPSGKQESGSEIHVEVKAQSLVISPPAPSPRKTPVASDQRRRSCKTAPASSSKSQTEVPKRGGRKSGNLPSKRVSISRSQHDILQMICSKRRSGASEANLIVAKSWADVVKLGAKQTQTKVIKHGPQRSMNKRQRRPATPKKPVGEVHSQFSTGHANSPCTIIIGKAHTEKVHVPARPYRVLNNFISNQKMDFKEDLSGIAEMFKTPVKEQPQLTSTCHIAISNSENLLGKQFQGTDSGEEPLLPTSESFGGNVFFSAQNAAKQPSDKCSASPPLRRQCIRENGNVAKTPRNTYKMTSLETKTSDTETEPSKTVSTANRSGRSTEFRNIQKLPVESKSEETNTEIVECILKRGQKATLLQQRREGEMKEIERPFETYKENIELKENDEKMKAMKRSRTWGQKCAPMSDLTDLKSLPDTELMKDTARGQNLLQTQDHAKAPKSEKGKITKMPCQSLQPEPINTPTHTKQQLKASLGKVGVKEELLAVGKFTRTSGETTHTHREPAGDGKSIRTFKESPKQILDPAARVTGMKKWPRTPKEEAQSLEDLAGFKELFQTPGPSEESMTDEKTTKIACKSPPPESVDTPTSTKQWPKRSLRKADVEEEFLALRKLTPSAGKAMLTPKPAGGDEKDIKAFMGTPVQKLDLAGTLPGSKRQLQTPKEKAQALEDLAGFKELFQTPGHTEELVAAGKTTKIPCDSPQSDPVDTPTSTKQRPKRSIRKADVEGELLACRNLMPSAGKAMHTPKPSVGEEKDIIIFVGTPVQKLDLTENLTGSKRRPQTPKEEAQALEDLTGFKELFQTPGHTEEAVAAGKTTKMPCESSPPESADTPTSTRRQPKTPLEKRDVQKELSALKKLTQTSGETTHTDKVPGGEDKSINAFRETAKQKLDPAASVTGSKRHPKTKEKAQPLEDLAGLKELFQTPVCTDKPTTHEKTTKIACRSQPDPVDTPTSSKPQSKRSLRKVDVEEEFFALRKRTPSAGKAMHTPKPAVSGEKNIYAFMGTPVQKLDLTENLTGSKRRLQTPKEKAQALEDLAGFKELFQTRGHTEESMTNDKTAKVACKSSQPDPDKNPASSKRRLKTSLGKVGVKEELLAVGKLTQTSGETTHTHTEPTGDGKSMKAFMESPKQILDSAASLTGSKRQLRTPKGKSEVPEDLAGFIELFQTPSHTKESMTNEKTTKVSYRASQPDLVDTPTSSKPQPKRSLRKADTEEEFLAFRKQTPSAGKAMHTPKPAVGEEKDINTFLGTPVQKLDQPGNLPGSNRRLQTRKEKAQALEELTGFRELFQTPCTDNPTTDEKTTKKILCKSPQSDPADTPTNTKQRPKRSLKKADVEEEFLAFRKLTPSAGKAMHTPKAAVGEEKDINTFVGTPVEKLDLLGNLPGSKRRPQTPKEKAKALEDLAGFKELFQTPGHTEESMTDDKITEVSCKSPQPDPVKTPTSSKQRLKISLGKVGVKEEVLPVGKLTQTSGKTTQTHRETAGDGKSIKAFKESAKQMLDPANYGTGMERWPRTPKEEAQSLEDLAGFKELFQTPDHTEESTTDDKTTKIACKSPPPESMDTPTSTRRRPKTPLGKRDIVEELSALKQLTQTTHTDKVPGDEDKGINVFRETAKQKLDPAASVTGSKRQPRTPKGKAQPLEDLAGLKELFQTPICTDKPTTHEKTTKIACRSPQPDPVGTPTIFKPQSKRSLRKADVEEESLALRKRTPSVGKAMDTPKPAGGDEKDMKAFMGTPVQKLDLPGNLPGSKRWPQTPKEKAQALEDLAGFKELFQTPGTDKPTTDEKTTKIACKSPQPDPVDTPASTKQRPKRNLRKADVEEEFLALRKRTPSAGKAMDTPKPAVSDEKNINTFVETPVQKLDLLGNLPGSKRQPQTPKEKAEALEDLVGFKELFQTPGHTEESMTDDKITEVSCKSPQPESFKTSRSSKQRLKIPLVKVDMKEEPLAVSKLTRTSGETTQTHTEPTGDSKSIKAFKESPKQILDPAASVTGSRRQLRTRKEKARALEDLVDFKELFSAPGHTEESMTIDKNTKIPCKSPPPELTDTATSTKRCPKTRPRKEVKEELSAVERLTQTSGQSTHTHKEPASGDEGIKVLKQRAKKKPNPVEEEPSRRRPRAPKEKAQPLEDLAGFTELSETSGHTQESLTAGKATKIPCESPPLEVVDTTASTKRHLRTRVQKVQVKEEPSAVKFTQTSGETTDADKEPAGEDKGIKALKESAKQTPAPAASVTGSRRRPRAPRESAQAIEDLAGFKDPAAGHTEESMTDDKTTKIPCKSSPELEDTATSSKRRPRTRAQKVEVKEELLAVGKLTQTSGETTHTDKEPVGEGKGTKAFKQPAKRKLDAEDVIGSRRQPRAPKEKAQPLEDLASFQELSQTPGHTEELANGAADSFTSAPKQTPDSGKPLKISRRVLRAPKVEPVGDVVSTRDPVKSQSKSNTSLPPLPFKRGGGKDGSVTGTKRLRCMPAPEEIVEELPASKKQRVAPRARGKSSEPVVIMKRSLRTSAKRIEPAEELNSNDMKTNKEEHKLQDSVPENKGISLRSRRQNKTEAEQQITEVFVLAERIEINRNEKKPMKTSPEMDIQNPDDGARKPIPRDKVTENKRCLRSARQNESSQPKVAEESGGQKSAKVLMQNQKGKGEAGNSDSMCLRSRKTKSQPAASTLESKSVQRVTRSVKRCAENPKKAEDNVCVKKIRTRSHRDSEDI
UniProt P03372, sequence (P03372 whole entry): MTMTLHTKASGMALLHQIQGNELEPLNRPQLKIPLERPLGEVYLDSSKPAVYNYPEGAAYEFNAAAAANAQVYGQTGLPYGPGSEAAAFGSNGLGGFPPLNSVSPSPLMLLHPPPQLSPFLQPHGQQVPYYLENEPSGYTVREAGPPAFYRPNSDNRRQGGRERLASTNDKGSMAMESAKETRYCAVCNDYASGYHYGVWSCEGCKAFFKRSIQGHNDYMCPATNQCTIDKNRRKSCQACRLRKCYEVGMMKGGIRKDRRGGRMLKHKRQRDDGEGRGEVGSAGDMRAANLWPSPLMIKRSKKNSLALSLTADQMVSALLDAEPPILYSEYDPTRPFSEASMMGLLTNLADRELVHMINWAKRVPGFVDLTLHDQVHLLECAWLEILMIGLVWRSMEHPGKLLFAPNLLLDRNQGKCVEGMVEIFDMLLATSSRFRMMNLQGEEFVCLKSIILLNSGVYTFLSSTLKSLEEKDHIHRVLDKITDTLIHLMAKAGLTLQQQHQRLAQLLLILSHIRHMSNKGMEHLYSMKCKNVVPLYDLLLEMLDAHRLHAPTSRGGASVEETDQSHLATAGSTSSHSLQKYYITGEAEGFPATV
UniProt P10415, sequence (P10415 whole entry): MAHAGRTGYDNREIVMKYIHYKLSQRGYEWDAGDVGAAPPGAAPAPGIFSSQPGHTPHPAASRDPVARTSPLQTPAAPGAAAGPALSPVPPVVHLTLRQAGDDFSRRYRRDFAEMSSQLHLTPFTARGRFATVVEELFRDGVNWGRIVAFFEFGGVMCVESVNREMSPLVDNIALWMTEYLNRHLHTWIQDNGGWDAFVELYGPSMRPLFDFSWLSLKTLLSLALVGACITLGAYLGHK
UniProt P17661, sequence (P17661 2-470 limits assumed): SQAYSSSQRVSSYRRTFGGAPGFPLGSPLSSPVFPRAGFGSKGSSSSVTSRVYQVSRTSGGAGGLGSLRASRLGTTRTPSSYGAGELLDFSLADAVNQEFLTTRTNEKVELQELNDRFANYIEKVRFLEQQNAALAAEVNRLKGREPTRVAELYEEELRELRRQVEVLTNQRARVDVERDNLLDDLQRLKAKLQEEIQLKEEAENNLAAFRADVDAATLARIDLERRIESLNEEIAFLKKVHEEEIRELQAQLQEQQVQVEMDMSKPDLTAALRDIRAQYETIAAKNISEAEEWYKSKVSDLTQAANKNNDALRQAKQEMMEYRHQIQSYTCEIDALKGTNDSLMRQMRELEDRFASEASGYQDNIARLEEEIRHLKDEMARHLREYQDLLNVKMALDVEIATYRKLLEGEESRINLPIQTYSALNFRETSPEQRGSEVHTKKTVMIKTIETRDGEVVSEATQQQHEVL
UniProt P46527, sequence (P46527 whole entry): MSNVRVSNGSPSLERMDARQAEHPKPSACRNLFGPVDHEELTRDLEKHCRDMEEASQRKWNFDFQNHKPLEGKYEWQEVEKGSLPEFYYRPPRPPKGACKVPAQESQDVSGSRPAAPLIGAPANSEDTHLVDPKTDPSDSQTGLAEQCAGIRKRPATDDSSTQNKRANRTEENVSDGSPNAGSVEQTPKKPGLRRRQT

“Monoclonal Mouse Anti-Human CD45 LCA (DakoCytomation code No. M0701) (antibody)”: the results for the Specific staining intensity in test [1] and in test [2] were 2 score and 3 score, respectively.

Turning to “mouse anti-human BCL2 oncoprotein, Clone 124 (DakoCytomation code No. M0887) (antibody)”, the Specific staining intensity in test [3] and in test [4] was 2 score throughout.

In the case of “Monoclonal Mouse Anti-Human CD68 (DakoCytomation code No. M0876) (antibody)”, the Specific staining intensity in test [5] and in test [6] was 2 score throughout.

As to “Monoclonal Mouse Anti-Human Epithelial Membrane Antigen (DakoCytomation code No. M0613) (antibody)”, the Specific staining intensity stood at 1.5 score in test [7] and 2.5 score in test [8].

With “mouse IgG1 negative control (DakoCytomation code No. X0931) (antibody)”, the Specific staining intensity in test [9] came out at 0 score.

For the substance “Monoclonal Mouse Anti-Human Ki-67 Antigen (DakoCytomation code No. M7240) (antibody)”, the Specific staining intensity in test [10] stood at 1.5 score; in [11] it was 2 score; in test [12], 3 score; in [13], 2.5 score; in [14], 1.5 score; in [15], 2 score. In test [16], this substance had a Staining intensity score of 2.5. Further, the specific staining in test [17] amounted to 2 score; in test [18] it was 1.5 score; in [19] it was 1.5 score. In test [20], this substance showed a staining score of 1.

Substance “K5007 GaM:HRP complex (ChemMate EnVision Detection kit Rabbit/Mouse, DakoCytomation code No. K5007 bottle A) (antibody)” displayed a Specific staining intensity with K5007 in [21] of 3 score.

Turning to “Monoclonal Mouse Anti-Human p27 (DakoCytomation code No. M7203) (antibody)”, the figures for the Specific staining intensity in [22] and in test [23] were 1.5 score and 2.5 score, respectively.

Turning to “Monoclonal Mouse Anti-Human Desmin (DakoCytomation code No. M0760) (antibody)”, the Specific staining intensity in [24] and in [25] was 1.5 score each time.

Take “Monoclonal Mouse Anti-Human CD20cy (DakoCytomation code No. M0755) (antibody)”: the Specific staining intensity in [26] worked out at 1.5 score; in test [27], 2 score; in [28], 3 score; in test [29] it was 2.5 score; in [30] it was 1.5 score; in [31] it was 1.5 score.

On to “Monoclonal Mouse Anti-Human Estrogen Receptor (DakoCytomation code No. M7047) (antibody)”, for which the Specific staining intensity in [32] worked out at 2.5 score; in test [33], 3 score.

In the case of “Monoclonal Mouse Anti-Human Cytokeratin (DakoCytomation code No. M3515) (antibody)”, the Specific staining intensity is 1.5 score in test [34]; 2 score in test [35]; 2.5 score in [36]; 1.5 score in test [37]; 2 score in test [38]; 3 score in [42]. The specific staining in test [39] is 3 score; in [40] it was 2.5 score; in test [41], 3 score.
